# Reference: patent US20120190819A1 (MEDICAL RESEARCH COUNCIL, published 2012)
# Target: T1, SH3 domain of yeast Sho1p (yeast two-hybrid bait, pEG202-Sho1-SH3) (yeast, UniProt P40073 300-367, limits assumed)
# T1 construct: domain: SH3 domain; also called Sho1p SH3 domain
# Experiment: yeast two-hybrid screen, confirmed by interaction mating
# Text: Degenerate oligonucleotide cassettes were made by annealing and amplifying P20 and P21 encoding a biased library designed around the Pbs2p proline rich sequence ([…]) (SEQ ID NO: 33) that interacts with the SH3 domain of Sho1p. Translation of the cassette gives X(L/V/P/A)N(K/R)PLP(P/S/A)LP(L/V/P/A)X (SEQ ID NO: 34). At the DNA level, this oligonucleotide should give rise to a library with a theoretical complexity of 98,304. The cassette was ligated into STM pJG4-5, and grown up in XL10 Gold cells (Stratagene). The midi-prepped (Qiagen) DNA was used to create a yeast library of 6×10⁴ cells in EGY48, theoretically covering 60% of the sequences encoded by the library. These cells were mated with EGY42 cells carrying pEG202-Sho1-SH3, made as described above. Interactors were selected on -UHTL/X-Gal/Gal-Raff plates for 4 days, picked and the plasmids rescued into E. coli KC8 cells. The plasmids were transformed back into EGY48 to confirm interaction with the SH3 domain of Sho1p in EGY42 using an interaction-mating matrix.
# T1 sequence (P40073 300-367 limits assumed): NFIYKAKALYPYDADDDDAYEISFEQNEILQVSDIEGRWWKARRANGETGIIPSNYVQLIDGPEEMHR
row,Binder,binding result
1,"STM peptide aptamer 01 (designed binder, Insert (with its GP ends) constrained in STM) MIPWGLSEAKPATPEIQEIVDKVKPQLEEKTNETYGKLEAVQYKTQVDAGTNYYIKVRAGDNKYMHLKVFNGPVPNKPLPALPVIGPGVNKPLPALPAHGPIRNKPLPSLPASGPPGQNEDLVLTGYQVDKNKDDELTGF",binds
2,"STM peptide aptamer 09 (designed binder, Insert (with its GP ends) constrained in STM) MIPWGLSEAKPATPEIQEIVDKVKPQLEEKTNETYGKLEAVQYKTQVDAGTNYYIKVRAGDNKYMHLKVFNGPMLNKPLPSLPVGGPGLNKPLPSLPAAGPPGQNEDLVLTGYQVDKNKDDELTGF",binds
3,"STM peptide aptamer 02 (designed binder, Insert (with its GP ends) constrained in STM) MIPWGLSEAKPATPEIQEIVDKVKPQLEEKTNETYGKLEAVQYKTQVDAGTNYYIKVRAGDNKYMHLKVFNGPVLNKPLPSLPVMGPTPNKPLPPLPAAGPPGQNEDLVLTGYQVDKNKDDELTGF",binds
4,"STM peptide aptamer 04 (designed binder, Insert (with its GP ends) constrained in STM) MIPWGLSEAKPATPEIQEIVDKVKPQLEEKTNETYGKLEAVQYKTQVDAGTNYYIKVRAGDNKYMHLKVFNGPYLNRPLPSLPAYGPWVNRPLPSLPLSGPPGQNEDLVLTGYQVDKNKDDELTGF",binds
5,"STM peptide aptamer 06 (designed binder, Insert (with its GP ends) constrained in STM) MIPWGLSEAKPATPEIQEIVDKVKPQLEEKTNETYGKLEAVQYKTQVDAGTNYYIKVRAGDNKYMHLKVFNGPVVNKPLPSLPVKGPDVNKPLPSLPAVGPPGQNEDLVLTGYQVDKNKDDELTGF",binds

# Target: T1, SH3 domain of yeast Sho1p (yeast …)
# Experiment: yeast two-hybrid, Sho1-SH3 binding
# Text: We noted that other peptides containing a leucine at −5 (such as Apt03 and 05) were not inhibitory. Unlike AptA, these two peptide aptamers are constrained. To test the idea that constraint prevents the PPII helix of peptide aptamers such as Apt03 and 05 from productive interaction with Sho1 SH3, we replaced the C-terminal stop codon of AptA with codons encoding each amino acid residue in turn to make AptA a full-length peptide aptamer constrained in STM. After re-constraint, only one of the seven amino acid residues P, V, C, D, H, F and W at +5 allow binding to Sho1 SH3 in the context of a constrained protein (Table IV). This contrasts with the findings of Feng et al [Feng S, Chen J K, Yu H, Simon J A, Schreiber S L. 1994. Two binding orientations for peptides to the Src SH3 domain: development of a general model for SH3-ligand interactions. Science. 266: 1241-7] and Rickles et al [Rickles R J, Botfield M C, Zhou X M, Henry P A, Brugge J S, Zoller M J. 1995. Phage display selection of ligand residues important for Src homology 3 domain binding specificity. Proc Natl Acad Sci USA. […] In addition, none of the constrained AptA variants show the ability to inhibit Pbs2-Hog1 activation (Table IV). […] They further indicate that in the context of STM, the presence of one of the 7 permissive residues at position +5 either allows the formation of a left handed type II polyproline helix or allows interaction at a surface on Sho1 distinct from the SH3 domain.
row,Binder,binding result
1,"re-constrained AptA, RLNKPLPSLPVH in full-length STM (designed binder, Stop codon of AptA replaced, making a full-length aptamer constrained in STM) MIPWGLSEAKPATPEIQEIVDKVKPQLEEKTNETYGKLEAVQYKTQVDAGTNYYIKVRAGDNKYMHLKVFNGPRLNKPLPSLPVHGPPGQNEDLVLTGYQVDKNKDDELTGF",binds
2,"re-constrained AptA, RLNKPLPSLPVA in full-length STM (designed binder, Stop codon of AptA replaced, making a full-length aptamer constrained in STM) MIPWGLSEAKPATPEIQEIVDKVKPQLEEKTNETYGKLEAVQYKTQVDAGTNYYIKVRAGDNKYMHLKVFNGPRLNKPLPSLPVAGPPGQNEDLVLTGYQVDKNKDDELTGF",no binding
3,"re-constrained AptA, RLNKPLPSLPVC in full-length STM (designed binder, Stop codon of AptA replaced, making a full-length aptamer constrained in STM) MIPWGLSEAKPATPEIQEIVDKVKPQLEEKTNETYGKLEAVQYKTQVDAGTNYYIKVRAGDNKYMHLKVFNGPRLNKPLPSLPVCGPPGQNEDLVLTGYQVDKNKDDELTGF",binds
4,"re-constrained AptA, RLNKPLPSLPVE in full-length STM (designed binder, Stop codon of AptA replaced, making a full-length aptamer constrained in STM) MIPWGLSEAKPATPEIQEIVDKVKPQLEEKTNETYGKLEAVQYKTQVDAGTNYYIKVRAGDNKYMHLKVFNGPRLNKPLPSLPVEGPPGQNEDLVLTGYQVDKNKDDELTGF",no binding
5,"re-constrained AptA, RLNKPLPSLPVF in full-length STM (designed binder, Stop codon of AptA replaced, making a full-length aptamer constrained in STM) MIPWGLSEAKPATPEIQEIVDKVKPQLEEKTNETYGKLEAVQYKTQVDAGTNYYIKVRAGDNKYMHLKVFNGPRLNKPLPSLPVFGPPGQNEDLVLTGYQVDKNKDDELTGF",binds
6,"re-constrained AptA, RLNKPLPSLPVG in full-length STM (designed binder, Stop codon of AptA replaced, making a full-length aptamer constrained in STM) MIPWGLSEAKPATPEIQEIVDKVKPQLEEKTNETYGKLEAVQYKTQVDAGTNYYIKVRAGDNKYMHLKVFNGPRLNKPLPSLPVGGPPGQNEDLVLTGYQVDKNKDDELTGF",no binding
7,"re-constrained AptA, RLNKPLPSLPVI in full-length STM (designed binder, Stop codon of AptA replaced, making a full-length aptamer constrained in STM) MIPWGLSEAKPATPEIQEIVDKVKPQLEEKTNETYGKLEAVQYKTQVDAGTNYYIKVRAGDNKYMHLKVFNGPRLNKPLPSLPVIGPPGQNEDLVLTGYQVDKNKDDELTGF",no binding
8,"re-constrained AptA, RLNKPLPSLPVK in full-length STM (designed binder, Stop codon of AptA replaced, making a full-length aptamer constrained in STM) MIPWGLSEAKPATPEIQEIVDKVKPQLEEKTNETYGKLEAVQYKTQVDAGTNYYIKVRAGDNKYMHLKVFNGPRLNKPLPSLPVKGPPGQNEDLVLTGYQVDKNKDDELTGF",binds
9,"re-constrained AptA, RLNKPLPSLPVL in full-length STM (designed binder, Stop codon of AptA replaced, making a full-length aptamer constrained in STM) MIPWGLSEAKPATPEIQEIVDKVKPQLEEKTNETYGKLEAVQYKTQVDAGTNYYIKVRAGDNKYMHLKVFNGPRLNKPLPSLPVLGPPGQNEDLVLTGYQVDKNKDDELTGF",no binding
10,"re-constrained AptA, RLNKPLPSLPVM in full-length STM (designed binder, Stop codon of AptA replaced, making a full-length aptamer constrained in STM) MIPWGLSEAKPATPEIQEIVDKVKPQLEEKTNETYGKLEAVQYKTQVDAGTNYYIKVRAGDNKYMHLKVFNGPRLNKPLPSLPVMGPPGQNEDLVLTGYQVDKNKDDELTGF",no binding
11,"re-constrained AptA, RLNKPLPSLPVN in full-length STM (designed binder, Stop codon of AptA replaced, making a full-length aptamer constrained in STM) MIPWGLSEAKPATPEIQEIVDKVKPQLEEKTNETYGKLEAVQYKTQVDAGTNYYIKVRAGDNKYMHLKVFNGPRLNKPLPSLPVNGPPGQNEDLVLTGYQVDKNKDDELTGF",binds
12,"re-constrained AptA, RLNKPLPSLPVP in full-length STM (designed binder, Stop codon of AptA replaced, making a full-length aptamer constrained in STM) MIPWGLSEAKPATPEIQEIVDKVKPQLEEKTNETYGKLEAVQYKTQVDAGTNYYIKVRAGDNKYMHLKVFNGPRLNKPLPSLPVPGPPGQNEDLVLTGYQVDKNKDDELTGF",binds
13,"re-constrained AptA, RLNKPLPSLPVQ in full-length STM (designed binder, Stop codon of AptA replaced, making a full-length aptamer constrained in STM) MIPWGLSEAKPATPEIQEIVDKVKPQLEEKTNETYGKLEAVQYKTQVDAGTNYYIKVRAGDNKYMHLKVFNGPRLNKPLPSLPVQGPPGQNEDLVLTGYQVDKNKDDELTGF",no binding
14,"re-constrained AptA, RLNKPLPSLPVR in full-length STM (designed binder, Stop codon of AptA replaced, making a full-length aptamer constrained in STM) MIPWGLSEAKPATPEIQEIVDKVKPQLEEKTNETYGKLEAVQYKTQVDAGTNYYIKVRAGDNKYMHLKVFNGPRLNKPLPSLPVRGPPGQNEDLVLTGYQVDKNKDDELTGF",no binding
15,"re-constrained AptA, RLNKPLPSLPVS in full-length STM (designed binder, Stop codon of AptA replaced, making a full-length aptamer constrained in STM) MIPWGLSEAKPATPEIQEIVDKVKPQLEEKTNETYGKLEAVQYKTQVDAGTNYYIKVRAGDNKYMHLKVFNGPRLNKPLPSLPVSGPPGQNEDLVLTGYQVDKNKDDELTGF",no binding
16,"re-constrained AptA, RLNKPLPSLPVT in full-length STM (designed binder, Stop codon of AptA replaced, making a full-length aptamer constrained in STM) MIPWGLSEAKPATPEIQEIVDKVKPQLEEKTNETYGKLEAVQYKTQVDAGTNYYIKVRAGDNKYMHLKVFNGPRLNKPLPSLPVTGPPGQNEDLVLTGYQVDKNKDDELTGF",no binding
17,"re-constrained AptA, RLNKPLPSLPVV in full-length STM (designed binder, Stop codon of AptA replaced, making a full-length aptamer constrained in STM) MIPWGLSEAKPATPEIQEIVDKVKPQLEEKTNETYGKLEAVQYKTQVDAGTNYYIKVRAGDNKYMHLKVFNGPRLNKPLPSLPVVGPPGQNEDLVLTGYQVDKNKDDELTGF",binds
18,"re-constrained AptA, RLNKPLPSLPVW in full-length STM (designed binder, Stop codon of AptA replaced, making a full-length aptamer constrained in STM) MIPWGLSEAKPATPEIQEIVDKVKPQLEEKTNETYGKLEAVQYKTQVDAGTNYYIKVRAGDNKYMHLKVFNGPRLNKPLPSLPVWGPPGQNEDLVLTGYQVDKNKDDELTGF",binds
19,"re-constrained AptA, RLNKPLPSLPVY in full-length STM (designed binder, Stop codon of AptA replaced, making a full-length aptamer constrained in STM) MIPWGLSEAKPATPEIQEIVDKVKPQLEEKTNETYGKLEAVQYKTQVDAGTNYYIKVRAGDNKYMHLKVFNGPRLNKPLPSLPVYGPPGQNEDLVLTGYQVDKNKDDELTGF",no binding
20,"control peptide aptamer RLNKPLPSLPVG* (truncated STM) (designed binder, Ends at a stop codon after the added G (unconstrained control)) MIPWGLSEAKPATPEIQEIVDKVKPQLEEKTNETYGKLEAVQYKTQVDAGTNYYIKVRAGDNKYMHLKVFNGPRLNKPLPSLPVG",binds
